Results on 5 molecules are retold here after patent US20230399395A1 (SHANGHAI NOVAMAB BIOPHARMACEUTICALS, published 2023).

Assay [1] deals with T1, human IL5 (human, UniProt P05113 20-134, biotinylated (IL5-biotin) in Examples 2, 5, 6, 9 and 11; site not stated). The experiment in a line: cell-based or functional assay.
For assay [2], the target named is T1, human IL5. Put plainly: Flow cytometry, blocking of IL5-biotin binding to HEK293F cells expressing IL5R. On the technique in general: A flow cytometer gives signals particle by particle.
Method: Specifically, The HEK293F stable cells with high expression of IL5R were centrifuged at 1000 rpm for 5 min, and the supernatant was discarded. The cells were washed once with 5 mL PBS and then resuspended with 2 mL PBS. After counting, the cells were divided into a 96-well plate with 3×10⁵ cells per well. […] After centrifugation at 4° C. at 3000 rpm, 200 μL PBS was added to each well, and then centrifuged at 3000 rpm and 4° C. for 4 min after resuspension. The diluted SA-PE antibody (diluted at 0.3:100) was added and incubated at 4° C. for 20 min. After centrifugation at 4° C. for 4 min at 3000 rpm, the supernatant was discarded, and 200 μL PBS was added to each well to wash the cells twice. Then 200 μL PBS was added to resuspend the cells, transfer to a flow tube, and the PE signal of each sample was detected by flow cytometry.
Assay [3] addresses T2, mouse IL5 (mouse, UniProt P04401 21-133).
T2 sequence (looked up): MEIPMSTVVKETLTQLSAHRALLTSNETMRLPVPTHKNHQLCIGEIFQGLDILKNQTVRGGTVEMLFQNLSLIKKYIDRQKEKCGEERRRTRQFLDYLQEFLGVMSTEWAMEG
Put plainly: ELISA, coated IL5, anti-HA detection. (An ELISA detects its analyte on a solid surface through an enzyme-linked reagent.)
Method: After washing 5 times with PBST, 300 μL 1% BSA was added to each well for blocking at room temperature for 2 hours. […] Then the plate was washed for 5 times with PBST, 100 μL diluted mouse anti-HA antibody (1:2000 dilution) was added and incubated for 1 hour at 37° C. After washing 5 times with PBST, 100 μL diluted alkaline phosphatase modified anti-mouse antibody (1:2000 dilution) was added and incubated at 37° C. for 1 hour. Then the plate was washed with PBST for 5 times, developing solution was added, and the absorption value was measured at 405 nm wavelength by a microplate reader.

The target in assay [4] is T1, human IL5. Put plainly: BLI (Fortebio Red96), 1:1 global fit.
Method: Probes coated with Protein A were used to capture antibody, capture time 180 s; binding to gradient diluted antigen, binding time 300 s; dissociation time 360 s; 10 mM glycine (pH 1.7) was used to regenerate 3 times, each time for 5 s. Fortebio Analysis version 9.0 was used for the analysis, the 1:1 binding model Global mode was fitted, and the binding rate (Kon), the dissociation rate (Kdis) and the dissociation constant KD were calculated.

B1: bivalent biepitope IL5 nanobody HuNb66-HuNb21 expressed by yeast (VHH)
chain: EVQLQESGGGLVQPGGSLRLSCAASGYTVSSNMGWFRQAPGKEREGVAAIYPDGATYYADSVKGRFTISRDNSENTLYLQMNSLRAEDTAMYYCAADLAFNGLGTLALHGYWGQGTLVTVSSGGGGSGGGGSGGGGSGGGGSEVQLQESGGGLVQPGGSLRLSCAASGYPYSGDYCMGWFRQAPGKEREGVAAFYTGGGSTYYADSVKGRFTISRDNSKNTLYLQMNSLRAEDTAVYYCAADPWSVYGGSCGVKDPNPKAFNYWGQGTLVTVSS
notes: also called bivalent biepitopic antibody HuNb66-HuNb21
As a reminder, the IC50 is the point on the concentration scale where inhibition reaches its midpoint. The low end stands for inhibition by little substance, the high end for a need for much substance. For the molecule B1, in assay [1], the “IC50 of inhibition of the proliferation of TF-1 cells induced by IL5 (CCK8, OD450)” value was determined as 0.0512 nM. This molecule also had an IC50 in assay [2] of 0.841 µg/mL.

B2: Nb25 (VHH)
VHH: QVQLQESGGGSVQAGGSLRLSCAASEYTYSRYCMGWFRQVPGKEREGVATIDSDGSTSYADSVKGRFTISKDNAKNTLYLQMNSLKPEDTAMYYCAARYFYIATTGLRPCGEYEYNYWGQGTQVTVSS
notes: Camel nanobody, prokaryotic expression from the pMECS vector; It was detected with anti-HA antibody
In general, Kd refers to the equilibrium constant for the complex coming apart. A higher Kd goes with lower affinity. In the case of B2, in assay [3], the binding result is listed as “no binding”. The same molecule returned a Kd in assay [4] below 1 nM.

B3: Nb92 (VHH)
VHH: QVQLQESGGGLVQPGGSLRLSCAASGFTFSNYYMSWVRQAPGKGLEWVSSISSDGSNTYYEDSVKGRFTISRDNANNTLYLQMNSLKSEDTALYHCATDLYDDSWYDHWGQGTQVTVSS
notes: as for B2
For B3, the binding result in assay [3] is on record as “no binding”. Further, the Kd in assay [4] was below 1 nM.

B4: Nb21 (VHH)
VHH: QVQLQESGGGSAQAGGSLKLSCVVSGYPYSGDYCMGWFRQAPGKEREGVAAFYTGGGSTYYADSVKGRFTTSQDNATSTFHLQMNSLKPEDTATYYCAADPWSVYGGSCGVKDPNPKAFNYWGQGTQVTVSS
notes: Camel nanobody, prokaryotic expression from the pMECS vector; also called Nb21-biotin
For the molecule B4, the binding result in assay [3] is reported as “no binding”. The molecule further displayed a Kd in assay [4] below 1 nM.

B5: Nb66 (VHH)
VHH: QVQLQESGGGSVQAGGSLRLSCAASGYTVSSNMGWFRQAPGKEREGVAAIYPDGATYYADSVKGRFTISQDNAENTVYLQMNSLKPEDTAMYYCAADLAFNGLGTLALHGYWGQGTQVTVSS
notes: as for B2
With B5, in assay [3], the binding result is given as “no binding”. In addition, the Kd in assay [4] was below 1 nM.
